Sequences and labels used below:
B1: Subtilisin inhibitor, P01006 (parent)
chain: MRNTGAGPSPSVSRPPPSAAPLSGAALAAPGDAPSALYAPSALVLTVGKGVSATTAAPERAVTLTCAPGPSGTHPAAGSACADLAAVGGDLNALTRGEDVMCPMVYDPVLLTVDGVWQGKRVSYERVFSNECEMNAHGSSVFAF

In the series the parent is B1. To be noted: Streptomyces albogriseolus, Thermal, DSC, reversible: yes, structure 3SSI, whole UniProt chain shown; for ddG of mutation (higher = less stable) / unfolding free energy: 82.21 °C.

In general, Tm refers to the temperature at the midpoint of the melting transition. For the variant V44I, for the setting “pH 7, phosphate 25 mM”, the “ddG of mutation (higher = less stable)” value was found to be 0.84 kcal/mol; the unfolding free energy worked out at 5.19 kcal/mol; the Tm was 79.8 °C; the “change of melting temperature, mutant - wild type (higher = more stable)” value (“change of melting temperature, mutant” below) is -2.4 °C. Further, the “unfolding enthalpy (calorimetric)” value (pH 7, phosphate 25 mM) was 182 kcal/mol. In addition, where the note is “pH 9.5, glycine 25 mM”, the “ddG of mutation (higher = less stable)” value stood at 0.94 kcal/mol; the unfolding free energy stood at 5.1 kcal/mol; the Tm amounted to 78.9 °C; the “change of melting temperature, mutant” value is -1.83 °C. The “unfolding enthalpy (calorimetric)” value (pH 9.5, glycine 25 mM) was 178 kcal/mol.

Turning to V44A, under “pH 9.5, glycine 25 mM”, the Tm is 67 °C; the “change of melting temperature, mutant” value was -13.7 °C; the “unfolding enthalpy (calorimetric)” value worked out at 190 kcal/mol.

Consider V44G, for which, under “pH 7, phosphate 25 mM”, the Tm worked out at 54.5 °C; the “change of melting temperature, mutant” value was -27.7 °C; the “unfolding enthalpy (calorimetric)” value is 162 kcal/mol. Besides, under “pH 9.5, glycine 25 mM”, the Tm stood at 55.3 °C; the “change of melting temperature, mutant” value was -25.4 °C; the “unfolding enthalpy (calorimetric)” value stood at 158 kcal/mol.

Regarding V44L, where the note is “pH 7, phosphate 25 mM”, the Tm was found to be 77.7 °C; the “change of melting temperature, mutant” value was -4.5 °C; the “unfolding enthalpy (calorimetric)” value came to 175 kcal/mol. Also, for the setting “pH 9.5, glycine 25 mM”, the “ddG of mutation (higher = less stable)” value is 2.52 kcal/mol; the unfolding free energy was determined as 3.52 kcal/mol; the Tm came out at 75.4 °C; the “change of melting temperature, mutant” value is -5.3 °C. In addition, where the note is “pH 9.5, glycine 25 mM”, the “unfolding enthalpy (calorimetric)” value turned out to be 170 kcal/mol.

Regarding V44M, under “pH 7, phosphate 25 mM”, the “ddG of mutation (higher = less stable)” value was 5.92 kcal/mol; the unfolding free energy was found to be 0.11 kcal/mol; the Tm came out at 69.6 °C; the “change of melting temperature, mutant” value is -12.6 °C. Besides, the “unfolding enthalpy (calorimetric)” value (pH 7, phosphate 25 mM) was determined as 181 kcal/mol. For the same variant, under “pH 9.5, glycine 25 mM”, the “ddG of mutation (higher = less stable)” value turned out to be 5.43 kcal/mol; the unfolding free energy turned out to be 0.61 kcal/mol; the Tm stood at 69 °C; the “change of melting temperature, mutant” value is -11.7 °C. Moreover, where the note is “pH 9.5, glycine 25 mM”, the “unfolding enthalpy (calorimetric)” value was 176 kcal/mol.

V44F: under “pH 7, phosphate 25 mM”, the “ddG of mutation (higher = less stable)” value amounted to 5.69 kcal/mol; the unfolding free energy is 0.34 kcal/mol; the Tm was 69.1 °C; the “change of melting temperature, mutant” value was -13.5 °C. Besides, the “unfolding enthalpy (calorimetric)” value (pH 7, phosphate 25 mM) was determined as 168 kcal/mol. Further, where the note is “pH 9.5, glycine 25 mM”, the “ddG of mutation (higher = less stable)” value was determined as 5.33 kcal/mol; the unfolding free energy came out at 0.71 kcal/mol; the Tm was determined as 68.3 °C; the “change of melting temperature, mutant” value was -12.4 °C. Further, the “unfolding enthalpy (calorimetric)” value (pH 9.5, glycine 25 mM) turned out to be 164 kcal/mol.

For the origin of these results see FireProtDB (doi:10.1006/jmbi.1995.0324).
